Laboratory results from patent US9845340B2, “Peptides that specifically bind HGF receptor (cMet) and uses thereof” (Dyax Corp., priority 2003, dated 2017).

Columns and labels:
[1] = molecular target: T1, 3T3 cells that over-express human cMet (Homo sapiens, UniProt P08581); experiment: Whole cell ELISA of peptide-displaying phage; assay type: cell-based; settings: phage isolate; 3T3 cells expressing human cMet vs. non-expressing 3T3 cells
T1 construct: expressed in transfected cells; host or cells: 3T3 cells
Procedure, shortened: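 Phage displaying peptides, pre-blocked 1 h at 37 °C, incubated 1 h at RT on glutaraldehyde-fixed (0.1%, 12 min, 37 °C) cMet-overexpressing 3T3 cells (10^5 per well). Binding read out by HRP anti-M13 antibody after PBST washing.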

cMet-Fc fusion protein = cMet-Fc fusion protein (Homo sapiens, UniProt P08581); experiment: Protein phage ELISA: peptide-displaying phage binding to soluble cMet-Fc versus TRAIL-Fc; settings: phage isolate; cMet-Fc vs. TRAIL-Fc
Procedure, shortened: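 Phage displaying selected peptides were incubated 2 h at room temperature on wells coated with 0.5 μg/mL cMet-Fc, with TRAIL-Fc coating as the unrelated-Fc specificity control.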

T1 sequence (P08581 25-1390): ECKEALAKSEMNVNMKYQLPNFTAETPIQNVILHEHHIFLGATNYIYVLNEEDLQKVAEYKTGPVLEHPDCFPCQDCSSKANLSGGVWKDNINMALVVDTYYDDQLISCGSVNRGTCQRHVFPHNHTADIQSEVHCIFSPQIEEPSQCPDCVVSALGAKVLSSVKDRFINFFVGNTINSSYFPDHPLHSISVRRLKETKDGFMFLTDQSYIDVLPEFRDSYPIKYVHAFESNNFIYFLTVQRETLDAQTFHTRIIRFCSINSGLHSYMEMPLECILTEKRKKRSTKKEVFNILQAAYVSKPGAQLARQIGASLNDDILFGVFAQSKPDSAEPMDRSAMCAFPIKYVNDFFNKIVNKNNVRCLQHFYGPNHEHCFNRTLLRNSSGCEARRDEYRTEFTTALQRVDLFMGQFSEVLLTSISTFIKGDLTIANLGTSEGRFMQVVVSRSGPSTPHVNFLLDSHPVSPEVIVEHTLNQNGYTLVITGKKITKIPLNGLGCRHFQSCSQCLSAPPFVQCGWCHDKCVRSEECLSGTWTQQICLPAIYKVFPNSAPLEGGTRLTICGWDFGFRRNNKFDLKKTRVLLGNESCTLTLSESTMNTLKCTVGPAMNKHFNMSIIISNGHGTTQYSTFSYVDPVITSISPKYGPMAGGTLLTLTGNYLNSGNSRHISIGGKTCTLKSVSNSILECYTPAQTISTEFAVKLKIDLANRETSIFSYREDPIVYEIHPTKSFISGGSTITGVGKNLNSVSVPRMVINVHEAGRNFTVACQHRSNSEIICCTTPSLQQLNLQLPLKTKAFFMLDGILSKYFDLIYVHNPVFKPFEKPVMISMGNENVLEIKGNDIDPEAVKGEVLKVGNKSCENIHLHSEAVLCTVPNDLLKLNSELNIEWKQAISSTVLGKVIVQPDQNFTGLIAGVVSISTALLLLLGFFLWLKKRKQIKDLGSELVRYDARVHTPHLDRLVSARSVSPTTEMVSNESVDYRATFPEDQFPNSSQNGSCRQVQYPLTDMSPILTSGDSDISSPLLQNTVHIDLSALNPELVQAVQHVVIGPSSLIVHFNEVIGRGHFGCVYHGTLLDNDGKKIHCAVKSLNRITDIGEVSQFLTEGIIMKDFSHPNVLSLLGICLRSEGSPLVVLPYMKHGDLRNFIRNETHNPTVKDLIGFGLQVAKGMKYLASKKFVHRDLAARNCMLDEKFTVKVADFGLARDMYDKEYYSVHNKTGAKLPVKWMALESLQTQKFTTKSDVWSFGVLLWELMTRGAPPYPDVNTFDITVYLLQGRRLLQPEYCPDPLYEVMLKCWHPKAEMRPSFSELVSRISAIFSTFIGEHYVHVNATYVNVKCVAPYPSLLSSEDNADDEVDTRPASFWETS
Chain of cMet-Fc fusion protein (P08581 25-307 limits assumed): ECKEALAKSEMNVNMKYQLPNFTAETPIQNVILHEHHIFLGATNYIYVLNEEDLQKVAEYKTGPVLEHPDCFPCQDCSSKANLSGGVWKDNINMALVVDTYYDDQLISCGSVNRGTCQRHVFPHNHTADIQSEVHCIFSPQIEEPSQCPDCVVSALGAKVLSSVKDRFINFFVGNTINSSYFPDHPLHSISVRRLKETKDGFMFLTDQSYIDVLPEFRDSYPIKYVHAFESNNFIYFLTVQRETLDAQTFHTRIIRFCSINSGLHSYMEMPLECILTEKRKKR
Chain of cMet-Fc fusion protein (P08581 with tags, fused parts or gaps limits assumed): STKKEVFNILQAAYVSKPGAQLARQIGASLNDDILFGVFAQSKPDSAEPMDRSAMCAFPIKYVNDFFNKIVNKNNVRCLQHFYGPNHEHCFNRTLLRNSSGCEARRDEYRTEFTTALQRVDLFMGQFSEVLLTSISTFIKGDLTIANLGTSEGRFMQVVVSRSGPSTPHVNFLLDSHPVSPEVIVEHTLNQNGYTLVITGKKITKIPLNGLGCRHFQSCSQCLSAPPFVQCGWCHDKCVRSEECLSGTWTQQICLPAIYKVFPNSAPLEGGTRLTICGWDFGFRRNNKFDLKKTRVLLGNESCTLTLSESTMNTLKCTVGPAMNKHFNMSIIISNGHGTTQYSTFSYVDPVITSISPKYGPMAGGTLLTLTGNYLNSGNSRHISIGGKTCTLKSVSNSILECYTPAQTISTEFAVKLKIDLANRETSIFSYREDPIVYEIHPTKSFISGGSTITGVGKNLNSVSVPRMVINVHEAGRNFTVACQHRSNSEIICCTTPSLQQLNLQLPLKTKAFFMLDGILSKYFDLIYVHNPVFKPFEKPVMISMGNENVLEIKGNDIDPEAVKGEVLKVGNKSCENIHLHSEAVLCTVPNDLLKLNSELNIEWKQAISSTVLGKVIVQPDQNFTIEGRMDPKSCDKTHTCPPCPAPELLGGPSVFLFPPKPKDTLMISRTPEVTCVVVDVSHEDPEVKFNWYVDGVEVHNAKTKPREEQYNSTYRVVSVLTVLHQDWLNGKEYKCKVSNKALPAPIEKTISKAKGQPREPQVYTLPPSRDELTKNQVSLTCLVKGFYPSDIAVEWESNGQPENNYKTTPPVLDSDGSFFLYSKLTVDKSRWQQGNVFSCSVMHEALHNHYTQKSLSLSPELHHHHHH

Sequence	WC ELISA [1] [fold over background]	Protein ELISA (cMet-Fc fusion protein) [fold over background]
AGTVYCSWESSECWWVGT (Synthetically generated cMet-binding peptide sequence) [SEQ ID NO: 019]	1.37	3.9
AGTWHCAGPPWFTCYMDGT (Synthetically generated cMet-binding peptide sequence) [SEQ ID NO: 069]	1.30	9.0
AGVIVCNLSMMYCLYPGT (Synthetically generated cMet-binding peptide sequence) [SEQ ID NO: 023]	1.33	3.2
AGVLQCIGFEWFCDIWGT (Synthetically generated cMet-binding peptide sequence) [SEQ ID NO: 022]	1.40	3.4
AGVNSCLGPPTFECYQMGT (Synthetically generated cMet-binding peptide sequence) [SEQ ID NO: 076]	1.20	5.7
AGVTNCNLSTMFCFLHGT (Synthetically generated cMet-binding peptide sequence) [SEQ ID NO: 026]	1.30	3.8
AGVWICRVWDDECFFQGT (Synthetically generated cMet-binding peptide sequence) [SEQ ID NO: 020]	1.37	3.7
AGWFECEFGFWGCNWLGT (Synthetically generated cMet-binding peptide sequence) [SEQ ID NO: 018]	1.13	3.9
AGWTWCDLSMMSCIFHGT (Synthetically generated cMet-binding peptide sequence) [SEQ ID NO: 025]	1.37	3.2
AGWWSCQWELNVCIWQGT (Synthetically generated cMet-binding peptide sequence) [SEQ ID NO: 016]	1.33	4.1
AGYFECKGPPTFECWLSGT (Synthetically generated cMet-binding peptide sequence) [SEQ ID NO: 060]	1.43	8.1
AGYPECKDNYHWCEWKGT (Synthetically generated cMet-binding peptide sequence) [SEQ ID NO: 024]	1.30	14.5
AGYSVCKGYPSFECAFFGT (Synthetically generated cMet-binding peptide sequence) [SEQ ID NO: 075]	1.33	5.8
AGYWDCKGPPHFFCEWHGT (Synthetically generated cMet-binding peptide sequence) [SEQ ID NO: 080]	1.23	7.4
AGYWHCKGPPHFACEFHGT (Synthetically generated cMet-binding peptide sequence) [SEQ ID NO: 077]	1.40	5.5
AGYWSCAGPPMFMCTWQGT (Synthetically generated cMet-binding peptide sequence) [SEQ ID NO: 079]	1.27	10.7
AGYYGCKGPPTFECQWMGT (Synthetically generated cMet-binding peptide sequence) [SEQ ID NO: 049]	1.33	13.8
AGYYHCIDDFPQCKWMGT (Synthetically generated cMet-binding peptide sequence) [SEQ ID NO: 017]	1.37	3.9

Results, then the sequence that gave them:

WC ELISA [1] [fold over background]	Protein ELISA (cMet-Fc fusion protein) [fold over background]	Sequence
1.23	13.0	AGTMYCLGPPTFICQQYGT (Synthetically generated cMet-binding peptide sequence) [SEQ ID NO: 084]
1.30	4.0	AGWGWCSGPPMFMCTEYGT (Synthetically generated cMet-binding peptide sequence) [SEQ ID NO: 099]
1.33	3.9	AGWSDCLGPPQFTCVHWGT (Synthetically generated cMet-binding peptide sequence) [SEQ ID NO: 083]
1.40	9.1	AGYFHCSGSPWFQCDYYGT (Synthetically generated cMet-binding peptide sequence) [SEQ ID NO: 081]
1.23	3.4	AQAEWVITSEEFYWKMADFGPP (Synthetically generated cMet-binding peptide sequence) [SEQ ID NO: 478]
1.20	3.8	AQAYEWWADESIFNHGYYWGHQ (Synthetically generated cMet-binding peptide sequence) [SEQ ID NO: 470]
1.37	3.3	AQDNTADQMFNGFHVLAMYMV (Synthetically generated cMet-binding peptide sequence) [SEQ ID NO: 481]
1.27	3.7	AQDPGFSKHSMGHGYPSKMNWG (Synthetically generated cMet-binding peptide sequence) [SEQ ID NO: 471]
1.23	3.6	AQELFQILEKQMWSDFMEWATP (Synthetically generated cMet-binding peptide sequence) [SEQ ID NO: 474]
1.40	3.8	AQEWQTWTWNMIEVISENKTP (Synthetically generated cMet-binding peptide sequence) [SEQ ID NO: 468]
1.20	4.3	AQFDRYWHFAWMDVSFSSGQSG (Synthetically generated cMet-binding peptide sequence) [SEQ ID NO: 465]
1.63	3.0	AQFMYEKEHYVMSISLPGLWFY (Synthetically generated cMet-binding peptide sequence) [SEQ ID NO: 486]
1.27	5.6	AQFPLEFDVPNFSYHWLVSFNP (Synthetically generated cMet-binding peptide sequence) [SEQ ID NO: 460]
1.30	3.5	AQFSGLVMYGRTHEVQWTFGSM (Synthetically generated cMet-binding peptide sequence) [SEQ ID NO: 477]
1.30	3.8	AQGGRYPFYDTDWFKWEMYVL (Synthetically generated cMet-binding peptide sequence) [SEQ ID NO: 496]
1.17	4.5	AQGIAWQLEWSYMPQSPPSFDR (Synthetically generated cMet-binding peptide sequence) [SEQ ID NO: 495]
1.17	3.5	AQHGYLSPLKQYQMSHVEFWTY (Synthetically generated cMet-binding peptide sequence) [SEQ ID NO: 476]
1.80	3.0	AQHMDPAEWDWFIRIYSPVVNP (Synthetically generated cMet-binding peptide sequence) [SEQ ID NO: 487]
1.30	3.1	AQHVVTLTLIQMPFAFNFEPRM (Synthetically generated cMet-binding peptide sequence) [SEQ ID NO: 484]
1.40	3.0	AQKTWFLEADLFQMFQEVTWQF (Synthetically generated cMet-binding peptide sequence) [SEQ ID NO: 490]
1.23	3.1	AQLFQYLWHDDPQGAFFQLSMW (Synthetically generated cMet-binding peptide sequence) [SEQ ID NO: 483]
1.23	3.7	AQMGHHWDVQWDYKLFHVARGD (Synthetically generated cMet-binding peptide sequence) [SEQ ID NO: 473]
1.27	3.0	AQMWHRVHDPGYTFEVTWLWDN (Synthetically generated cMet-binding peptide sequence) [SEQ ID NO: 488]
